Non-standard residues stand in square brackets, D forms with d. No end group written: not given here. dPra = C#CC[C@@H](N)C(=O)O; dDap = NC[C@@H](N)C(=O)O
B1: CyPPS1 (peptide)
peptide: cyclo(T[dL]F[dF]R[dA])
SMILES: CC(C)C[C@H]1NC(=O)[C@H]([C@@H](C)O)NC(=O)[C@@H](C)NC(=O)[C@H](CCCNC(=N)N)NC(=O)[C@@H](Cc2ccccc2)NC(=O)[C@H](Cc2ccccc2)NC1=O
B2: CyPPS23 (peptide)
peptide: cyclo(T[dL]F[dF]R[dDap])
SMILES: CC(C)C[C@H]1NC(=O)[C@H]([C@@H](C)O)NC(=O)[C@@H](CN)NC(=O)[C@H](CCCNC(=N)N)NC(=O)[C@@H](Cc2ccccc2)NC(=O)[C@H](Cc2ccccc2)NC1=O
B3: CyPPS14 (peptide)
peptide: cyclo(T[dPra]F[dF]R[dA])
SMILES: C#CC[C@H]1NC(=O)[C@H]([C@@H](C)O)NC(=O)[C@@H](C)NC(=O)[C@H](CCCNC(=N)N)NC(=O)[C@@H](Cc2ccccc2)NC(=O)[C@H](Cc2ccccc2)NC1=O
B4: CyPPS13 (peptide)
peptide: cyclo(T[dV]F[dF]R[dA])
SMILES: CC(C)[C@H]1NC(=O)[C@H]([C@@H](C)O)NC(=O)[C@@H](C)NC(=O)[C@H](CCCNC(=N)N)NC(=O)[C@@H](Cc2ccccc2)NC(=O)[C@H](Cc2ccccc2)NC1=O
B5: CyPPS8 (peptide)
peptide: cyclo(D[dL]F[dF]R[dA])
SMILES: CC(C)C[C@H]1NC(=O)[C@H](CC(=O)O)NC(=O)[C@@H](C)NC(=O)[C@H](CCCNC(=N)N)NC(=O)[C@@H](Cc2ccccc2)NC(=O)[C@H](Cc2ccccc2)NC1=O
B6: CyPPS9 (peptide)
peptide: cyclo(V[dL]F[dF]R[dA])
SMILES: CC(C)C[C@H]1NC(=O)[C@H](C(C)C)NC(=O)[C@@H](C)NC(=O)[C@H](CCCNC(=N)N)NC(=O)[C@@H](Cc2ccccc2)NC(=O)[C@H](Cc2ccccc2)NC1=O
B7: CyPPS7 (peptide)
peptide: cyclo(K[dL]F[dF]R[dA])
SMILES: CC(C)C[C@H]1NC(=O)[C@H](CCCCN)NC(=O)[C@@H](C)NC(=O)[C@H](CCCNC(=N)N)NC(=O)[C@@H](Cc2ccccc2)NC(=O)[C@H](Cc2ccccc2)NC1=O

Biological target: 20S core particle (CP) proteasome
Assay: cell-based or functional assay

EC50, dose-response of 20S CP stimulation	Emax, dose-response of 20S CP stimulation	Binder
6.4 µM	283	B1
4.1 µM	391	B2
12.1 µM	514	B3
4 µM	394	B4
14.2 µM	701	B5

Biological target: 20S core particle (CP) proteasome
Assay: cell-based or functional assay
Remark: another data set of the same source

TAS-1 (percent stimulation of 20S CP)	Binder
310 % of DMSO	B6
340 % of DMSO	B1
226 % of DMSO	B7
352 % of DMSO	B2
126 % of DMSO	TLFFRA (also: linear version of CyPPS1, D-residues not given here) [PPS1]
388 % of DMSO	B3
422 % of DMSO	B4
372 % of DMSO	B5

Biological target: cytosolic proteasome in HEK293 T cells
Assay: cell-based or functional assay

In-Cellulo (flow cytometry with epoxomicin probe, HEK293 T cells)	Binder
235 not printed	B1
247 not printed	B2
83.7 not printed	TLFFRA (also: linear version of CyPPS1, D-residues not given here) [PPS1]
231 not printed	B3
174 not printed	B4
161 not printed	B5

From US20250073302A1 (PURDUE RESEARCH FOUNDATION, published 2025)
